# Experiment: yeast display, Sf9 membrane polyspecificity reagent, FACS + sequencing; frameworks hold sequencing errors
# Summary of the method: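 Sorting gates, low and high (top ~1%), were placed on anti-HA fluorescence to track expression and on streptavidin fluorescence to track reagent binding. A clone's polyreactivity label is taken from the gate it came out of. The reagent was 10% biotinylated, detergent-solubilized Sf9 membrane, applied for 1 hour at 4 °C to galactose-induced yeast display cells.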
row,Sequence,polyreactivity (PSR sort gate)
1,QVQLVESGGGLVQAGGSLRVSCAASGGILRGYAMGWYRQARGKEWELVAAISRGGRTNYADSVKGRFTISRDNAKNTVYLQMNSLKPEDTAVYYCAKRYARGENDYWGQGTQVTVSS,high polyreactivity
2,QVQLVESGGGLVQAGGSLRVSCAASGIIFDGNAMGWYRQAPGKERELVAAITASGGSTHYADSVKGRFTISRDNAKNTVYLQMNSLKPEDTAVYYCNKRSRTTGDYDYWGQGTHVTVSS,low polyreactivity
3,QVQLVESGGGLVQAGGSLRVSCAASGIIFGSYPMGWYRQAPGTERELVATISFSGGTTNYADSVKGRFPISRDNATTPVYLQMNSLTPEDTAVYYCAARPAPATGKLDYWGQGTQETVSS,low polyreactivity
4,QVQLVESGGGLVQAGGSLRVSCAASGITFAYYAMGWYRHAPGKDRELVAAITRRGSSTYYADSVKGRFTISRDNAKNTVYLQMNSLKPEATAVYYCAAVAYGRERYDYWGPGTQVTVSS,high polyreactivity
5,QVQLVESGGGLVQAGGSLRVSCAASGLILAYYDMGWYRQAPGKERELVASITGSGGDTYYADSVKGRFTISRDNAKNTVYLQMNSLKPEDTAVYYCAAEYRNVYWIFGVDYWGQGTQVTVSS,low polyreactivity
6,QVQLVESGGGLVQAGGSLRVSCAASGNTFYYTMGWYLQAPGKERELVATISYDGTSTYYADSVKGRFTISRDNAKNTVYLQKNSLKPEDTAVYYSSAYGTVVTLNDYWGQGTQVTVSS,low polyreactivity
7,QVQLVESGGGLVQAGGSLRVSCAASGRIFPFYAMGWYRQAAGKERELVAAISWNGGSTFYADSVKGRFTSSRDNANNTVYLQMHRLKPEDNAVYYCNADFRPAYTYDYWGQGTQVTVSS,low polyreactivity
8,QVQLVESGGGLVQAGGSLRVSCAASGRIFYPYAMGWYRQAPGKERELVAAIRRSGVDTYYADSVKGRFTISRDNAKNTVYLQMNSLKPEDTAVYYCDADPYWFFPHYDSWGQGTQVTVSS,low polyreactivity
9,QVQLVESGGGLVQAGGSLRVSCAASGRIVWPNTMGWSRQAPGKERELVAAISWSGGSTYYADSVKGRFTISRDNAKNTVYLHRNSLKPEHTAVYSCAKRPPHYSWPKIIDFGSWGQGTQVTVSS,high polyreactivity
10,QVQLVESGGGLVQAGGSLRVSCAASGSIFDSNAMGWYRQAPGKERELVASITSSGGSTYYADSVKGRFTISRDNAKNTVYLQMNSLKPEDTAVYYCAKRAWTGYGYYYWGQGTQVTVSS,high polyreactivity
11,QVQLVESGGGLVQAGGSLRVSCAASGSTFPPSAMGWYREAPGKERELGAAIDWSDGTTYYADSVKGRFTISRDYAKNTVYLQMNSLKPEDTAVYYCAADPVLDEYDYWGQGTQVTVSS,low polyreactivity
12,QVQLVESGGGLVQAGGSLRVSCAASGSTFVYYAMGWYRQAPGKERELVAAITASGGGTYYADSVKGRFTISRDNAKNTVYLQMNSLKPEDTAVYYCNRGYDYWGQGTQVTVSS,low polyreactivity
13,QVQLVESGGGLVQAGGSLRVSCAASGSTFYEYAMGWYRQAPGKERELVAAITRGGTTYYADSVKGRFTISRDNAKNTDYYQMNSLKPEDTAVYYCAARTRGFTKLGYWGQGTQVTVSS,high polyreactivity
14,QVQLVESGGGLVQAGGSLRVSCAASGTTFPRNAMGWYRQAPGKERELVATITSAGGGTYYADSVKGRFTISRDNAKNSVYLQMNSLKPEDTAVYYCNADGPAGDAFDSWGQGTQVTVSS,low polyreactivity
15,QVQLVESGGGLVQAGGSLRVSCAASGYTFDLYAMGWYRQAPGKERELVADISSGGSTNYADSVKGRFTISRDNAKNTVYLQMNSLKPEDTAVYYCAVDADRTLFGQYYVSEYGGGYWGQGTQVTVSS,low polyreactivity
16,QVQLVESGGGLVQAGGSLSFSCAASGNTFYRNAMGWYSQAPGKERELVAAITFSTVRTYYADSVKGRFTISRDNAKNTVYLQMNSLKPEDTAVYYCNKLYRGTWAKENGYWGQGTQVTVSS,high polyreactivity
17,QVQLVESGGGLVQAGGSLSISCAASGRTFYAYAMGWYRQAPGTERELVASIDKSGGSTYYADSVKGRFTISRRIRRYRLFTDEQPETGRYRCLLLRCWCVVLSDFQFWGDFDYDYWGQGTQVTVSS,low polyreactivity
18,QVQLVESGGGLVQAGGSLSISCASSGRNFGANAMGLYRQAPGKERELVAVITGGGGTYYADSVKGRFTISRDNAKNTVYLQMNSLKPEDTAVYYCDWPRYYYTYPSHPMDYWGQGTQVTVSS,low polyreactivity
19,QVQLVESGGGLVQAGGSLSLICAASGNTFPPYAMGWYRQAPGKERELVAAISCGGRTYYADSVKGRFTISRDNAKNTVYLQMNSLTPEDTAVYYCAVYVPNYYSYHYDYWGQGTQVTVSS,high polyreactivity
20,QVQLVESGGGLVQAGGSLSLICAASGSIFAPNAMGLYRQAPGKERELDATITKRGGNTYYADSVKGRFTISRDNAINTVYLKMNSLKPEDSAVFYCNDSPYSRWSSYGYDYWGQGTQVTVSS,low polyreactivity
21,QVQLVESGGGLVQAGGSLSLICAASGSTFNLYPMGGYRKAPGKERELVAAISRGGSTNYADSVKGRFTISRDNAKNTVYLQMNSLIPEDTAVYYCAARSWYDRYPYYSWGQGTQLTVSS,high polyreactivity
22,QVQLVESGGGLVQAGGSLSLICAASGTTFYYYAMGWYRQAPGKERELVAANTLRGTSTYYADSVKGRFTISRDNAKNTVDLQMNRLKPEDTAVYYCAVETYYSIFDIYDYWGQGTQVTVSS,low polyreactivity

row,Sequence,polyreactivity (PSR sort gate)
1,QVQLVESGGGLVQAGGSLSLICDASGRTFTRYVMGWYRHAPGKERELVAAISSSGGTYYADSVKGRFTISRDNAKNTVYLQMNSLKPEDTAVYYCAVGSKLSRSYGYYYWGQGTQVTVSS,high polyreactivity
2,QVQLVESGGGLVQAGGSLSLRCAASGGTFAPYAMGWYRQAPGTERELDAAISWSGGSTYYADSVKGLFTISRDNAKISVYLQMNSLKPEDTAVYYCAGRLTRGIYSTYYYWGQGTQGTVSS,high polyreactivity
3,QVQLVESGGGLVQAGGSLSLSCAASARIFYGYAMGWYRQEPGKEREFVAAITSGGRTYYADSVKGRFTISRDNAKNTVYLQMNSLKPEDTAVYYCAAAQYYRYGYWGQGTQVTVSS,high polyreactivity
4,QVQLVESGGGLVQAGGSLSLSCAASARTFYYYAMGWSRQAPGKEREFVASITWRGGRTYYADSVKGRFTISRDNAKNTVYLQMNSLKPEDTAVYYCAADGSYAIGGYGYWGQGTQVTVSS,high polyreactivity
5,QVQLVESGGGLVQAGGSLSLSCAASGFIFGGNAMGWYRQAPGKERELVAAISSGGRTYYADSVKGRFTISRDNAKNTVYLQMNSLKPEDTAVYYLNDYSYHRGRDYWGQGTQVTVSS,low polyreactivity
6,QVQLVESGGGLVQAGGSLSLSCAASGFIFSYYVMGWYRQAPGKERELVAAINESGGRTYYADSVKGRFTISRDNAKNTVYLQMNSLNPEDTAVYYCAASVLNKIQGYRDYYWGQGTQVTVSS,low polyreactivity
7,QVQLVESGGGLVQAGGSLSLSCAASGFIFTPYTMGWYREAPGKERELVAAITDGSSTNYADSVKGRFTISRDNAKNTVYLQMNSLKPEDTAVYYCAKDWPSAVYGSWAGRYDYWGQGSQVTVSS,low polyreactivity
8,QVQLVESGGGLVQAGGSLSLSCAASGFTFPLYAMGWYRPAPGKERELVASISKSGGRTYYADSVKGRFTISRDNAKNTVYLQMNSLKPEDTAVYYCATLPRYYGYWGQGTQVTVSS,high polyreactivity
9,QVQLVESGGGLVQAGGSLSLSCAASGFTFRWYAMGWYRQAPGKERELVAAISSDDDTSYADSVKGRFTISRDNAKNTVYLQMNSLKPEDTAVYDCAADGYYTLDAYPYGIFWYDYWGQGTQVTVSS,low polyreactivity
10,QVQLVESGGGLVQAGGSLSLSCAASGFTFRYNAMGWYRQAPGKERELVARISSTGGGTSYADSVKGRFTISRDNAKNTVYLQMNSLKPEDTAVYYCAAPVRRYPYPGRFYYWGQGTQVTVSS,low polyreactivity
11,QVQLVESGGGLVQAGGSLSLSCAASGFTFSVYVLGWYRQAPGKERELVAAISSGGDTTYADSVKGRFTISRDNAKNTVYLQMNSLNPVDTAVYYCAADPGYYSWGSSQDDYWGQGTQVTVSS,low polyreactivity
12,QVQLVESGGGLVQAGGSLSLSCAASGFTFYENAMGWYRQAPGKERELVATISYSGGTTYYADSVKGRFTISRDNAKNTVYLQMNSLKPEDTAVYYCNADYFYYGFPDDYWGQGTQVTVSS,low polyreactivity
13,QVQLVESGGGLVQAGGSLSLSCAASGFTFYYYAMGLYRQAPGKERELVAAISWSGGSTYYADSVKGRFTISRDIAKNSVYLQMNCLKPEYTAVYYCNAVGYTAYDYWGQGTQVTVSS,high polyreactivity
14,QVQLVESGGGLVQAGGSLSLSCAASGGTFSPYAMGWYRQAPGKERELVAITSSDSTNYADSVKGRFTISRDNAKNTVYLQMNSLKPEDTAVYYCNAGYPIPEDYLAYGNFDYWGQGTQVTVSS,low polyreactivity
15,QVQLVESGGGLVQAGGSLSLSCAASGGTFSYYAMGWYRQAPGKGELVAAISSGGSTNYADSVKGRFTISRDNAINTAYLQMNSLKPEDTAVYYCADRYRFWGPYNYWGQGTQVTVSS,high polyreactivity
16,QVQLVESGGGLVQAGGSLSLSCAASGGTFYQYAMGWYRQAPGKERELVAAISTSGARTYYADSVKGRFTISRDNAKNTVYLQMNSLKTEDTAVYYCAADHIRGGLDYWGQGTQVTVSS,high polyreactivity
17,QVQLVESGGGLVQAGGSLSLSCAASGIIFVDYAMGWYRQAPGKERELVAVIRSAGSTYYADSVKGRFTISRDNAKNTVYLQMNSLKPEDTAVYYCNARARGARRYYYWGQGTQVTVSS,high polyreactivity
18,QVQLVESGGGLVQAGGSLSLSCAASGLIFITYAMGWYRQAPGKERELVATITLRGGSTYYADSVKGRFTISRDNAKNTVYLQMNSLKPEDTAVYYCAADVGYWGRSRGYPSDDYDYWGQGTQVTVSS,low polyreactivity
19,QVQLVESGGGLVQAGGSLSLSCAASGLIFYYYAMGWYRQAPGKERELVAAISGSGGSTYYADSVKGRFTISRDNAKNTVYLQMNSLKPEDTAVYYCAAESQYTYGYGYWGQGTQVTVSS,high polyreactivity
20,QVQLVESGGGLVQAGGSLSLSCAASGLIYYSYAMGWYRQAPGKERELVAAITGGGSTNYADSVKGRFTISPDNAKNTVYLQMNSLKPEDTAVYYCAAAFTLRKYDYWGQGTQVSVSS,low polyreactivity
21,QVQLVESGGGLVQAGGSLSLSCAASGLTFVDNAMGWYRQAPWKERELVAAISYNGGSTYYADSVKGRFTISRDHAKTTVYLQMNSLKPEDTAVYSCAADIYVGRYGDMDFWGQGTQVTVSS,low polyreactivity
